Results: patent US20150344540A1, “NOVEL GLP-1 RECEPTOR AGONISTS WITH CHOLESTEROL EFFLUX ACTIVITY” (NOVO NORDISK A/S, priority 2012, published 2015)
Where no end group is shown, it is not given here. [ ]: non-standard residue; d: D form. Aib = CC(C)(N)C(=O)O

Target: human GLP-1 receptor (human, UniProt P43220)
Test: cell-based or functional assay

Binder	CRE luciferase EC50, 0% HSA [nM]	CRE luciferase EC50, 1% HSA [nM]
H[Aib]EGTFTSDVSSYLEGEAVREFIAWLVERVREFLK-NH2 (N-terminus assumed; SMILES CC[C@H](C)[C@H](NC(=O)[C@H](Cc1ccccc1)NC(=O)[C@H](CCC(=O)O)NC(=O)[C@H](CCCNC(=N)N)NC(=O)[C@@H](NC(=O)[C@H](C)NC(=O)[C@H](CCC(=O)O)NC(=O)CNC(=O)[C@H](CCC(=O)O)NC(=O)[C@H](CC(C)C)NC(=O)[C@H](Cc1ccc(O)cc1)NC(=O)[C@H](CO)NC(=O)[C@H](CO)NC(=O)[C@@H](NC(=O)[C@H](CC(=O)O)NC(=O)[C@H](CO)NC(=O)[C@@H](NC(=O)[C@H](Cc1ccccc1)NC(=O)[C@@H](NC(=O)CNC(=O)[C@H](CCC(=O)O)NC(=O)C(C)(C)NC(=O)[C@@H](N)Cc1c[nH]cn1)[C@@H](C)O)[C@@H](C)O)C(C)C)C(C)C)C(=O)N[C@@H](C)C(=O)N[C@@H](Cc1c[nH]c2ccccc12)C(=O)N[C@@H](CC(C)C)C(=O)N[C@H](C(=O)N[C@@H](CCC(=O)O)C(=O)N[C@@H](CCCNC(=N)N)C(=O)N[C@H](C(=O)N[C@@H](CCCNC(=N)N)C(=O)N[C@@H](CCC(=O)O)C(=O)N[C@@H](Cc1ccccc1)C(=O)N[C@@H](CC(C)C)C(=O)N[C@@H](CCCCN)C(N)=O)C(C)C)C(C)C) [[Aib8,Glu23,Val25,Arg26,Glu34,Arg35,Val36,Arg37]-GLP-1-(7-37)-peptidyl-Glu-Phe-Leu-Lys amide]	0.433	0.118
H[Aib]EGTFTSDVSSYLEGEAVKEFIAWLLEK[Aib]KEWL-NH2 (N-terminus assumed; SMILES CC[C@H](C)[C@H](NC(=O)[C@H](Cc1ccccc1)NC(=O)[C@H](CCC(=O)O)NC(=O)[C@H](CCCCN)NC(=O)[C@@H](NC(=O)[C@H](C)NC(=O)[C@H](CCC(=O)O)NC(=O)CNC(=O)[C@H](CCC(=O)O)NC(=O)[C@H](CC(C)C)NC(=O)[C@H](Cc1ccc(O)cc1)NC(=O)[C@H](CO)NC(=O)[C@H](CO)NC(=O)[C@@H](NC(=O)[C@H](CC(=O)O)NC(=O)[C@H](CO)NC(=O)[C@@H](NC(=O)[C@H](Cc1ccccc1)NC(=O)[C@@H](NC(=O)CNC(=O)[C@H](CCC(=O)O)NC(=O)C(C)(C)NC(=O)[C@@H](N)Cc1c[nH]cn1)[C@@H](C)O)[C@@H](C)O)C(C)C)C(C)C)C(=O)N[C@@H](C)C(=O)N[C@@H](Cc1c[nH]c2ccccc12)C(=O)N[C@@H](CC(C)C)C(=O)N[C@@H](CC(C)C)C(=O)N[C@@H](CCC(=O)O)C(=O)N[C@@H](CCCCN)C(=O)NC(C)(C)C(=O)N[C@@H](CCCCN)C(=O)N[C@@H](CCC(=O)O)C(=O)N[C@@H](Cc1c[nH]c2ccccc12)C(=O)N[C@@H](CC(C)C)C(N)=O) [[Aib8,Glu23,Val25,Leu33,Glu34,Lys35,Aib36,Lys37]-GLP-1-(7-37)-peptidyl-Glu-Trp-Leu amide]	0.659	0.32
H[Aib]EGTFTSDVSSYLEGKAVKEFIAWLVEK[Aib]KEFL-NH2 (N-terminus assumed; SMILES CC[C@H](C)[C@H](NC(=O)[C@H](Cc1ccccc1)NC(=O)[C@H](CCC(=O)O)NC(=O)[C@H](CCCCN)NC(=O)[C@@H](NC(=O)[C@H](C)NC(=O)[C@H](CCCCN)NC(=O)CNC(=O)[C@H](CCC(=O)O)NC(=O)[C@H](CC(C)C)NC(=O)[C@H](Cc1ccc(O)cc1)NC(=O)[C@H](CO)NC(=O)[C@H](CO)NC(=O)[C@@H](NC(=O)[C@H](CC(=O)O)NC(=O)[C@H](CO)NC(=O)[C@@H](NC(=O)[C@H](Cc1ccccc1)NC(=O)[C@@H](NC(=O)CNC(=O)[C@H](CCC(=O)O)NC(=O)C(C)(C)NC(=O)[C@@H](N)Cc1c[nH]cn1)[C@@H](C)O)[C@@H](C)O)C(C)C)C(C)C)C(=O)N[C@@H](C)C(=O)N[C@@H](Cc1c[nH]c2ccccc12)C(=O)N[C@@H](CC(C)C)C(=O)N[C@H](C(=O)N[C@@H](CCC(=O)O)C(=O)N[C@@H](CCCCN)C(=O)NC(C)(C)C(=O)N[C@@H](CCCCN)C(=O)N[C@@H](CCC(=O)O)C(=O)N[C@@H](Cc1ccccc1)C(=O)N[C@@H](CC(C)C)C(N)=O)C(C)C) [[Aib8,Lys23,Val25,Glu34,Lys35,Aib36,Lys37]-GLP-1-(7-37)-peptidyl-Glu-Phe-Leu amide]	0.311	0.173
H[Aib]EGTFTSDVSSYLEGEAVKEFIKWLVEK[Aib]KEFL-NH2 (N-terminus assumed; SMILES CC[C@H](C)[C@H](NC(=O)[C@H](Cc1ccccc1)NC(=O)[C@H](CCC(=O)O)NC(=O)[C@H](CCCCN)NC(=O)[C@@H](NC(=O)[C@H](C)NC(=O)[C@H](CCC(=O)O)NC(=O)CNC(=O)[C@H](CCC(=O)O)NC(=O)[C@H](CC(C)C)NC(=O)[C@H](Cc1ccc(O)cc1)NC(=O)[C@H](CO)NC(=O)[C@H](CO)NC(=O)[C@@H](NC(=O)[C@H](CC(=O)O)NC(=O)[C@H](CO)NC(=O)[C@@H](NC(=O)[C@H](Cc1ccccc1)NC(=O)[C@@H](NC(=O)CNC(=O)[C@H](CCC(=O)O)NC(=O)C(C)(C)NC(=O)[C@@H](N)Cc1c[nH]cn1)[C@@H](C)O)[C@@H](C)O)C(C)C)C(C)C)C(=O)N[C@@H](CCCCN)C(=O)N[C@@H](Cc1c[nH]c2ccccc12)C(=O)N[C@@H](CC(C)C)C(=O)N[C@H](C(=O)N[C@@H](CCC(=O)O)C(=O)N[C@@H](CCCCN)C(=O)NC(C)(C)C(=O)N[C@@H](CCCCN)C(=O)N[C@@H](CCC(=O)O)C(=O)N[C@@H](Cc1ccccc1)C(=O)N[C@@H](CC(C)C)C(N)=O)C(C)C) [[Aib8,Glu23,Val25,Lys30,Glu34,Lys35,Aib36,Lys37]-GLP-1-(7-37)-peptidyl-Glu-Phe-Leu amide]	0.103	0.043
H[Aib]EGTFTSDVSSYLEGEAVKEFIQHLVEKLKEFL-NH2 (N-terminus assumed; SMILES CC[C@H](C)[C@H](NC(=O)[C@H](Cc1ccccc1)NC(=O)[C@H](CCC(=O)O)NC(=O)[C@H](CCCCN)NC(=O)[C@@H](NC(=O)[C@H](C)NC(=O)[C@H](CCC(=O)O)NC(=O)CNC(=O)[C@H](CCC(=O)O)NC(=O)[C@H](CC(C)C)NC(=O)[C@H](Cc1ccc(O)cc1)NC(=O)[C@H](CO)NC(=O)[C@H](CO)NC(=O)[C@@H](NC(=O)[C@H](CC(=O)O)NC(=O)[C@H](CO)NC(=O)[C@@H](NC(=O)[C@H](Cc1ccccc1)NC(=O)[C@@H](NC(=O)CNC(=O)[C@H](CCC(=O)O)NC(=O)C(C)(C)NC(=O)[C@@H](N)Cc1c[nH]cn1)[C@@H](C)O)[C@@H](C)O)C(C)C)C(C)C)C(=O)N[C@@H](CCC(N)=O)C(=O)N[C@@H](Cc1c[nH]cn1)C(=O)N[C@@H](CC(C)C)C(=O)N[C@H](C(=O)N[C@@H](CCC(=O)O)C(=O)N[C@@H](CCCCN)C(=O)N[C@@H](CC(C)C)C(=O)N[C@@H](CCCCN)C(=O)N[C@@H](CCC(=O)O)C(=O)N[C@@H](Cc1ccccc1)C(=O)N[C@@H](CC(C)C)C(N)=O)C(C)C) [[Aib8,Glu23,Val25,Gln30,His31,Glu34,Lys35,Leu36,Lys37]-GLP-1-(7-37)-peptidyl-Glu-Phe-Leu amide]	0.077	0.025
H[Aib]EGTFTSDVSSYLEGEAVKEFIAWLVEK[Aib]LSFL-NH2 (N-terminus assumed; SMILES CC[C@H](C)[C@H](NC(=O)[C@H](Cc1ccccc1)NC(=O)[C@H](CCC(=O)O)NC(=O)[C@H](CCCCN)NC(=O)[C@@H](NC(=O)[C@H](C)NC(=O)[C@H](CCC(=O)O)NC(=O)CNC(=O)[C@H](CCC(=O)O)NC(=O)[C@H](CC(C)C)NC(=O)[C@H](Cc1ccc(O)cc1)NC(=O)[C@H](CO)NC(=O)[C@H](CO)NC(=O)[C@@H](NC(=O)[C@H](CC(=O)O)NC(=O)[C@H](CO)NC(=O)[C@@H](NC(=O)[C@H](Cc1ccccc1)NC(=O)[C@@H](NC(=O)CNC(=O)[C@H](CCC(=O)O)NC(=O)C(C)(C)NC(=O)[C@@H](N)Cc1c[nH]cn1)[C@@H](C)O)[C@@H](C)O)C(C)C)C(C)C)C(=O)N[C@@H](C)C(=O)N[C@@H](Cc1c[nH]c2ccccc12)C(=O)N[C@@H](CC(C)C)C(=O)N[C@H](C(=O)N[C@@H](CCC(=O)O)C(=O)N[C@@H](CCCCN)C(=O)NC(C)(C)C(=O)N[C@@H](CC(C)C)C(=O)N[C@@H](CO)C(=O)N[C@@H](Cc1ccccc1)C(=O)N[C@@H](CC(C)C)C(N)=O)C(C)C) [[Aib8,Glu23,Val25,Glu34,Lys35,Aib36,Leu37]-GLP-1-(7-37)-peptidyl-Ser-Phe-Leu amide]	0.872	0.368
H[Aib]EGTFTSDVSSYLEGEAVKEFIAWLVEKVKEFL-NH2 (N-terminus assumed; SMILES CC[C@H](C)[C@H](NC(=O)[C@H](Cc1ccccc1)NC(=O)[C@H](CCC(=O)O)NC(=O)[C@H](CCCCN)NC(=O)[C@@H](NC(=O)[C@H](C)NC(=O)[C@H](CCC(=O)O)NC(=O)CNC(=O)[C@H](CCC(=O)O)NC(=O)[C@H](CC(C)C)NC(=O)[C@H](Cc1ccc(O)cc1)NC(=O)[C@H](CO)NC(=O)[C@H](CO)NC(=O)[C@@H](NC(=O)[C@H](CC(=O)O)NC(=O)[C@H](CO)NC(=O)[C@@H](NC(=O)[C@H](Cc1ccccc1)NC(=O)[C@@H](NC(=O)CNC(=O)[C@H](CCC(=O)O)NC(=O)C(C)(C)NC(=O)[C@@H](N)Cc1c[nH]cn1)[C@@H](C)O)[C@@H](C)O)C(C)C)C(C)C)C(=O)N[C@@H](C)C(=O)N[C@@H](Cc1c[nH]c2ccccc12)C(=O)N[C@@H](CC(C)C)C(=O)N[C@H](C(=O)N[C@@H](CCC(=O)O)C(=O)N[C@@H](CCCCN)C(=O)N[C@H](C(=O)N[C@@H](CCCCN)C(=O)N[C@@H](CCC(=O)O)C(=O)N[C@@H](Cc1ccccc1)C(=O)N[C@@H](CC(C)C)C(N)=O)C(C)C)C(C)C) [[Aib8,Glu23,Val25,Glu34,Lys35,Val36,Lys37]-GLP-1-(7-37)-peptidyl-Glu-Phe-Leu amide]	0.474	0.381
H[Aib]EGTFTSDVSSYLEGEAVKEFIKWLVEKLKEFL-NH2 (N-terminus assumed; SMILES CC[C@H](C)[C@H](NC(=O)[C@H](Cc1ccccc1)NC(=O)[C@H](CCC(=O)O)NC(=O)[C@H](CCCCN)NC(=O)[C@@H](NC(=O)[C@H](C)NC(=O)[C@H](CCC(=O)O)NC(=O)CNC(=O)[C@H](CCC(=O)O)NC(=O)[C@H](CC(C)C)NC(=O)[C@H](Cc1ccc(O)cc1)NC(=O)[C@H](CO)NC(=O)[C@H](CO)NC(=O)[C@@H](NC(=O)[C@H](CC(=O)O)NC(=O)[C@H](CO)NC(=O)[C@@H](NC(=O)[C@H](Cc1ccccc1)NC(=O)[C@@H](NC(=O)CNC(=O)[C@H](CCC(=O)O)NC(=O)C(C)(C)NC(=O)[C@@H](N)Cc1c[nH]cn1)[C@@H](C)O)[C@@H](C)O)C(C)C)C(C)C)C(=O)N[C@@H](CCCCN)C(=O)N[C@@H](Cc1c[nH]c2ccccc12)C(=O)N[C@@H](CC(C)C)C(=O)N[C@H](C(=O)N[C@@H](CCC(=O)O)C(=O)N[C@@H](CCCCN)C(=O)N[C@@H](CC(C)C)C(=O)N[C@@H](CCCCN)C(=O)N[C@@H](CCC(=O)O)C(=O)N[C@@H](Cc1ccccc1)C(=O)N[C@@H](CC(C)C)C(N)=O)C(C)C) [[Aib8,Glu23,Val25,Lys30,Glu34,Lys35,Leu36,Lys37]-GLP-1-(7-37)-peptidyl-Glu-Phe-Leu amide]	0.465	0.275
